B1: recombinant GST-tagged HDAC4 (amino acid 627-1085) (domain or fragment, human, UniProt P56524 627-1084, looked up)
chain: LSRAQSSPASATFPVSVQEPPTKPRFTTGLVYDTLMLKHQCTCGSSSSHPEHAGRIQSIWSRLQETGLRGKCECIRGRKATLEELQTVHSEAHTLLYGTNPLNRQKLDSKKLLGSLASVFVRLPCGGVGVDSDTIWNEVHSAGAARLAVGCVVELVFKVATGELKNGFAVVRPPGHHAEESTPMGFCYFNSVAVAAKLLQQRLSVSKILIVDWDVHHGNGTQQAFYSDPSVLYMSLHRYDDGNFFPGSGAPDEVGTGPGVGFNVNMAFTGGLDPPMGDAEYLAAFRTVVMPIASEFAPDVVLVSSGFDAVEGHPTPLGGYNLSARCFGYLTKQLMGLAGGRIVLALEGGHDLTAICDASEACVSALLGNELDPLPEKVLQQRPNANAVRSMEKVMEIHSKYWRCLQRTTSTAGRSLIEAQTCENEEAETVTAMASLSVGVKPAEKRPDEEPMEEEPPL
B2: human full length N-terminal GST-tagged HDAC4 (natural protein, UniProt P56524 1-1084, looked up)
chain: MSSQSHPDGLSGRDQPVELLNPARVNHMPSTVDVATALPLQVAPSAVPMDLRLDHQFSLPVAEPALREQQLQQELLALKQKQQIQRQILIAEFQRQHEQLSRQHEAQLHEHIKQQQEMLAMKHQQELLEHQRKLERHRQEQELEKQHREQKLQQLKNKEKGKESAVASTEVKMKLQEFVLNKKKALAHRNLNHCISSDPRYWYGKTQHSSLDQSSPPQSGVSTSYNHPVLGMYDAKDDFPLRKTASEPNLKLRSRLKQKVAERRSSPLLRRKDGPVVTALKKRPLDVTDSACSSAPGSGPSSPNNSSGSVSAENGIAPAVPSIPAETSLAHRLVAREGSAAPLPLYTSPSLPNITLGLPATGPSAGTAGQQDAERLTLPALQQRLSLFPGTHLTPYLSTSPLERDGGAAHSPLLQHMVLLEQPPAQAPLVTGLGALPLHAQSLVGADRVSPSIHKLRQHRPLGRTQSAPLPQNAQALQHLVIQQQHQQFLEKHKQQFQQQQLQMNKIIPKPSEPARQPESHPEETEEELREHQALLDEPYLDRLPGQKEAHAQAGVQVKQEPIESDEEEAEPPREVEPGQRQPSEQELLFRQQALLLEQQRIHQLRNYQASMEAAGIPVSFGGHRPLSRAQSSPASATFPVSVQEPPTKPRFTTGLVYDTLMLKHQCTCGSSSSHPEHAGRIQSIWSRLQETGLRGKCECIRGRKATLEELQTVHSEAHTLLYGTNPLNRQKLDSKKLLGSLASVFVRLPCGGVGVDSDTIWNEVHSAGAARLAVGCVVELVFKVATGELKNGFAVVRPPGHHAEESTPMGFCYFNSVAVAAKLLQQRLSVSKILIVDWDVHHGNGTQQAFYSDPSVLYMSLHRYDDGNFFPGSGAPDEVGTGPGVGFNVNMAFTGGLDPPMGDAEYLAAFRTVVMPIASEFAPDVVLVSSGFDAVEGHPTPLGGYNLSARCFGYLTKQLMGLAGGRIVLALEGGHDLTAICDASEACVSALLGNELDPLPEKVLQQRPNANAVRSMEKVMEIHSKYWRCLQRTTSTAGRSLIEAQTCENEEAETVTAMASLSVGVKPAEKRPDEEPMEEEPPL

Legend:
[1] = target: T1, recombinant full length flag-tagged N-CoR (amino-acid 1-2440) (human, UniProt O75376 1-2440); assay: co-IP
[2] = target: T1, recombinant full length flag-tagged …; assay: SPR

T1 sequence (O75376 whole entry): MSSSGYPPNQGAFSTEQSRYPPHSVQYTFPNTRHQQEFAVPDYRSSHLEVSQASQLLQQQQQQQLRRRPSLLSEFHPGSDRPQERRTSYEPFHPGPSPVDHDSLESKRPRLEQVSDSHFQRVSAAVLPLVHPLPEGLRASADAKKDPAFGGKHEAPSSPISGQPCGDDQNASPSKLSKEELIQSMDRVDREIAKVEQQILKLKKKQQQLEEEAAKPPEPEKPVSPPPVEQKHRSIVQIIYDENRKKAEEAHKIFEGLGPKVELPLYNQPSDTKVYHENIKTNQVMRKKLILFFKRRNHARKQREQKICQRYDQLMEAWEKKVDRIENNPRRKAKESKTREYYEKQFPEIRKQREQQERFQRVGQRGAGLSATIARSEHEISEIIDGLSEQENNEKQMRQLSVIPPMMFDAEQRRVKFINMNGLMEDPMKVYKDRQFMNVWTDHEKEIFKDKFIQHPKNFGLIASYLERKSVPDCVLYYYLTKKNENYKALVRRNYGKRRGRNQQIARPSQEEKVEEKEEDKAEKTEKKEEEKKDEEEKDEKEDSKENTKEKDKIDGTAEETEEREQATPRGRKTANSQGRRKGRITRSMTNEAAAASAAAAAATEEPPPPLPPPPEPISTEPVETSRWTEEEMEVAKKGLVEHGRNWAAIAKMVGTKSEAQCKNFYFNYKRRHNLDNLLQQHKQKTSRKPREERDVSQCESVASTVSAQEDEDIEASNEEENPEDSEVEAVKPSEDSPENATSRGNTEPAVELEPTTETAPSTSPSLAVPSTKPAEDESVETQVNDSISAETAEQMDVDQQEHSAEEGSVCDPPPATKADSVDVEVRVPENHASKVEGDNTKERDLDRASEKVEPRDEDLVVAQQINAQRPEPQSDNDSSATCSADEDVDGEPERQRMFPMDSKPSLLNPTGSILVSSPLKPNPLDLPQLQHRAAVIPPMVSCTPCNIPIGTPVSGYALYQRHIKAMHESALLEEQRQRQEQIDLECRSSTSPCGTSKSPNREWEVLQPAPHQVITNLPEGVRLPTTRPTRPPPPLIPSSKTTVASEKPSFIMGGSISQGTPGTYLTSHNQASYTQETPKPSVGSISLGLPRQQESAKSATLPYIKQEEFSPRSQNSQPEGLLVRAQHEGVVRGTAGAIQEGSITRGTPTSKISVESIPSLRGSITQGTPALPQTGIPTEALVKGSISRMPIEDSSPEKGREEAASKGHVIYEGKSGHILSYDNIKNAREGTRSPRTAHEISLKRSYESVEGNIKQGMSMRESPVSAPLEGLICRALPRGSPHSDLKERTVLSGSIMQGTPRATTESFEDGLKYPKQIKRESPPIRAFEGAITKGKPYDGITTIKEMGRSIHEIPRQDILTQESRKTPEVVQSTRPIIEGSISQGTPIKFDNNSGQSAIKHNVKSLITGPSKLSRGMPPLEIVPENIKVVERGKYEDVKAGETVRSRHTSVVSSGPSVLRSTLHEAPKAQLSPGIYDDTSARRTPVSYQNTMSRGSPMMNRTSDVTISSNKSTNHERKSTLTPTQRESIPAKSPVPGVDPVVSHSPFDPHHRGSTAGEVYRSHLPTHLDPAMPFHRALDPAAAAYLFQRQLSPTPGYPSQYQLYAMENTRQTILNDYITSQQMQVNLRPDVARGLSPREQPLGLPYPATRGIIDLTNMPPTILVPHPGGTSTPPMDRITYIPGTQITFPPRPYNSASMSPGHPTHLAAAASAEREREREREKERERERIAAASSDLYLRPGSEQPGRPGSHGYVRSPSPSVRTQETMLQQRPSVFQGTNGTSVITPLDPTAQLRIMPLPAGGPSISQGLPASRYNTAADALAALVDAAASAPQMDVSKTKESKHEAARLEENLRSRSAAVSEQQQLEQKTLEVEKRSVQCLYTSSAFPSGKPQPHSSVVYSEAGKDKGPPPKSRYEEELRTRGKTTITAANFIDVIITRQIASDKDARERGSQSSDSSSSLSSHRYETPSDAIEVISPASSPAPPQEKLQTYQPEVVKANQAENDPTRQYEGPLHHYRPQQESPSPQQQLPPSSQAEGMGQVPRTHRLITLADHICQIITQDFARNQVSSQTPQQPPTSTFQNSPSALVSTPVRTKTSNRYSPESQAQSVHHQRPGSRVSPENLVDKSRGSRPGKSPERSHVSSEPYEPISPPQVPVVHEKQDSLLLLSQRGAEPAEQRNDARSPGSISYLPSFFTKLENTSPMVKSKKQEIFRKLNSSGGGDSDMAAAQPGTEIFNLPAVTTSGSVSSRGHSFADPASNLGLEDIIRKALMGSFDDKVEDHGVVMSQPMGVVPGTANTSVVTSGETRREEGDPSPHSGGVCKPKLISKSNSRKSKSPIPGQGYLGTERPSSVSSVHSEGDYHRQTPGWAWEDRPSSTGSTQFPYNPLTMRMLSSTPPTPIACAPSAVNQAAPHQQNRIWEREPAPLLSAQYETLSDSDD

Binder	binding result [1]	Kd [2] [nM]
B1	binds	–
B2	–	1

From article PMC3578133 (Cancer research, 2012)
